Assay [1] addresses β-AF488_(2) (β sliding clamp R103C/I305C/C260S/C333S labelled with Alexa Fluor 488) (E. coli) (UniProt P0A988). Nature of the assay: other fluorescence titration; γ complex titrated into β-AF488_(2) (20 nM in the text, 10 nM in the legend) with 0.5 mM ATP; relative AF488 intensity at 520 nm, excitation 495 nm; reaction buffer 20 mM Tris–HCl pH 7.5, 50 mM NaCl, 8 mM MgCl2, 5 mM DTT, 0.5 mM EDTA, 40 μg/ml BSA, 4% glycerol; three independent experiments.

The target of assay [2] is beta clamp (Escherichia coli) (UniProt P0A988). Conditions: cited from earlier work.
For assay [3] the target is unchanged. The settings on record: cited from earlier work. The source holds these as a separate data set.
The target of assay [4] is T1, WT γ complex clamp loader (γ3δδ′ψχ) (E. coli, UniProt P06710-2 1-431; P28630 1-343; P28631 1-334; P28632 1-137; P28905 1-147).
T1 construct: DNA polymerase III subunit γ, the truncated form of DnaX made by a translational frameshift, E. coli; DNA polymerase III subunit δ, E. coli; DNA polymerase III subunit δ′, E. coli; DNA polymerase III subunit ψ, E. coli; DNA polymerase III subunit χ, E. coli; also called WT clamp loader; source: expressed and purified as described previously [12, 25–28]; copies: 3 + + + +
Briefly: other fluorescence titration; γ complex titrated into β-AF488_(2) (20 nM in the text, 10 nM in the legend) with 0.5 mM ATP; relative AF488 intensity at 520 nm, excitation 495 nm; reaction buffer 20 mM Tris–HCl pH 7.5, 50 mM NaCl, 8 mM MgCl2, 5 mM DTT, 0.5 mM EDTA, 40 μg/ml BSA, 4% glycerol; three independent experiments. Conditions: both partners purified.

Results on four molecules are retold here after PMC13213242, “A novel ψ–χ fusion protein for unravelling the contributions of χ to DNA replication and repair” (Nucleic Acids Research, 2026).

Where two headings read alike, the source gives them in different places.

“γ complex containing ψ–GS12–χ (γ3δδ′ψ–GS12–χ) (from UniProt P06710-2 1-431; P28630 1-343; P28631 1-334; P28632 1-137)”: the dissociation constant (Kd) in assay [1] was determined as 2.1 nM.

Consider “gamma complex clamp loader (from UniProt P06710)”, for which the values for the Kd in assay [2] and in assay [3] were 3.3 nM and 3.2 nM, respectively. Consider “γ complex containing ψ–GS8–χ (γ3δδ′ψ–GS8–χ) (from UniProt P06710-2 1-431; P28630 1-343; P28631 1-334; P28632 1-137)”, for which the Kd in assay [1] was determined as 4.2 nM.

B1: β-AF488_(2) (β sliding clamp R103C/I305C/C260S/C333S labelled with Alexa Fluor 488) (natural protein, E. coli, UniProt P0A988 1-366, looked up)
chain: MKFTVEREHLLKPLQQVSGPLGGRPTLPILGNLLLQVADGTLSLTGTDLEMEMVARVALVQPHEPGATTVPARKFFDICRGLPEGAEIAVQLEGERMLVRSGCSRFSLSTLPAADFPNLDDWQSEVEFTLPQATMKRLIEATQFSMAHQDVRYYLNGMLFETEGEELRTVATDGHRLAVCSMPIGQSLPSHSVIVPRKGVIELMRMLDGGDNPLRVQIGSNNIRAHVGDFIFTSKLVDGRFPDYRRVLPKNPDKHLEAGSDLLKQAFARAAILSNEKFRGVRLYVSENQLKITANNPEQEEAEECLDVTYSGAEMEIGFNVSYVLDVLNALKSENVRMMLTDSVSSVQIEDAASQSAAYVVMPMRL
modifications: Alexa Fluor 488 (maleimide) on the introduced surface Cys residues (R103C, I305C)
notes: DNA polymerase III β sliding clamp, E. coli; labelled at both sides of the dimer interface; also called β-AF88_(2); β-R103C/I305C/C260S/C333S; source: expressed and purified as described previously; labelled with AF488 maleimide, purified (BioGel P6-DG desalting, HiTrap Q)
For the molecule B1, the Kd in assay [4] was found to be 2 nM.
